The series “SEC” deals with the molecule itself. The experiment in a line: SEC. For orientation: In gel filtration, larger molecules generally elute earlier.
The series “native gel or EMSA” deals with the molecule itself. The experiment in a line: native gel or EMSA. A general note: In EMSA bound probe runs differently from free probe, usually more slowly.
Series [1] has as its target T1, Human Spindlin1 50-262 (human, UniProt Q9Y657 50-262). The experiment in a line: thermal shift assay.
In series [2] the target is T1, Human Spindlin1 50-262. The series is described as follows: ITC.
The target of series [3] is T2, Spindlin1_(50-262) bound to DOCpep3 (human | , UniProt Q9Y657 50-262; Q9BUA3 256-281).
T2 chain 1: […]
T2 chain 2: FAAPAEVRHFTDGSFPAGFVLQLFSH
The series is described as follows: ITC. On the technique in general: Isothermal titration calorimetry measures the heat released or taken up as one component is titrated into another.

The next series addresses Spindlin1 F141A (human, UniProt Q9Y657 50-262, F141A). The series is described as follows: ITC.
For the next series, the target named is Spindlin1 W151A (human, UniProt Q9Y657 50-262, W151A). The experiment in a line: ITC.
A further series has as its target Spindlin1 Y177A (human, UniProt Q9Y657 50-262, Y177A). The experiment in a line: ITC.
The target of series [4] is Spindlin1_(50-262) bound to DOCpep(1-3) (human | , UniProt Q9Y657 50-262; Q9BUA3 188-281). The series is described as follows: ITC.

Where no end group is shown, it is not given here. [ ]: non-standard residue; d: D form. Lys(Me3) = C[N+](C)(C)CCCC[C@H](N)C(=O)O; Lys(Me2) = CN(C)CCCC[C@H](N)C(=O)O; Lys(Me) = CNCCCC[C@H](N)C(=O)O

Chain of Spindlin1 F141A (Q9Y657 50-262 F141A): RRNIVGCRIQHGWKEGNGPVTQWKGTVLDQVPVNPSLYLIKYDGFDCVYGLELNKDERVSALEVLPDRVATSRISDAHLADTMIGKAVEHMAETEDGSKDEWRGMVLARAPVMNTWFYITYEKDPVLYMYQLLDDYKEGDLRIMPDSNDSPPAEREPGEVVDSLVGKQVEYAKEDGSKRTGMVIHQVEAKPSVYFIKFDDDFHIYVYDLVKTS
Chain of Spindlin1 Y177A (Q9Y657 50-262 Y177A): as the sequence (Q9Y657 50-262 F141A) above, with A92F, Y128A counted along it
Chain of Spindlin1 W151A (Q9Y657 50-262 W151A): as the sequence (Q9Y657 50-262 F141A) above, with A92F, W102A counted along it

B1: full-length SPIN•DOC with N-terminal 6xHis tag, co-expressed with Spindlin1 (natural protein, UniProt Q9BUA3 1-381, looked up)
chain: MALKAEGAALDCFEVTLKCEEGEDEEEAMVVAVIPRPEPMLRVTQQEKTPPPRPSPLEAGSDGCEEPKQQVSWEQEFLVGSSPGGSGRALCMVCGAEIRAPSADTARSHILEQHPHTLDLSPSEKSNILEAWSEGVALLQDVRAEQPSPPNSDSGQDAHPDPDANPDAARMPAEIVVLLDSEDNPSLPKRSRPRGLRPLELPAVPATEPGNKKPRGQRWKEPPGEEPVRKKRGRPMTKNLDPDPEPPSPDSPTETFAAPAEVRHFTDGSFPAGFVLQLFSHTQLRGPDSKDSPKDREVAEGGLPRAESPSPAPPPGLRGTLDLQVIRVRMEEPPAVSLLQDWSRHPQGTKRVGAGDTSDWPTVLSESSTTVAGKPEKGNGV
The term stoichiometry N denotes the number of molecules, sites or subunits per partner or assembly. Turning to B1, in “SEC”, the “stoichiometry N” value was 2.

B2: GFP-SPIN•DOC wild type (natural protein, UniProt Q9BUA3 1-381, looked up)
chain: B1 chain
Take B2: the “stoichiometry N” value in “native gel or EMSA” was found to be 2.

B3: Flag-SPIN•DOC wild type (natural protein, UniProt Q9BUA3 1-381, looked up)
chain: B1 chain
Take B3: the “stoichiometry N” value in “native gel or EMSA” came out at 2.

B4: SPIN•DOC 188-281, DOCpep(1-3) (domain or fragment)
chain: PKRSRPRGLRPLELPAVPATEPGNKKPRGQRWKEPPGEEPVRKKRGRPMTKNLDPDPEPPSPDSPTETFAAPAEVRHFTDGSFPAGFVLQLFSH
On to B4, for which the binding result in the series with Human Spindlin1 50-262 [1] is “binds”.

B5: SPIN•DOC 184-240, the whole K/R-rich region (domain or fragment)
chain: NPSLPKRSRPRGLRPLELPAVPATEPGNKKPRGQRWKEPPGEEPVRKKRGRPMTKNL
Usually Kd stands for a measure of binding affinity in units of concentration. High values mean lower affinity, low ones higher affinity. In the case of B5, in the series with Human Spindlin1 50-262 [2], the Kd amounted to 7.6 µM and the “stoichiometry N” value was 0.5.

B6: histone H3 1-15 K4me3K9me3 peptide (peptide)
peptide: ART[Lys(Me3)]QTAR[Lys(Me3)]STGGKA
For the molecule B6, in [3], the binding result was “binds”.

B7: DOCpep1, SPIN•DOC 187-195 peptide (peptide)
peptide: LPKRSRPRG
On to B7, for which the Kd with Human Spindlin1 50-262 [2] amounted to 78 µM.

B8: DOCpep1 K189A peptide (peptide)
peptide: LPARSRPRG
As to B8, the “fold reduction of binding against wild-type DOCpep1” value with Human Spindlin1 50-262 [2] was 9 fold.

B9: DOCpep1 R192A peptide (peptide)
peptide: LPKRSAPRG
As for B9, the “fold reduction of binding against wild-type DOCpep1” value with Human Spindlin1 50-262 [2] was found to be 11 fold.

B10: DOCpep2, SPIN•DOC 228-239 peptide (peptide, UniProt Q9BUA3 228-239, looked up)
peptide: VRKKRGRPMTKN
With B10, the binding result with Spindlin1 F141A, in the series with Spindlin1 W151A and with Spindlin1 Y177A was “binds” each time. Further, binding in the series with Human Spindlin1 50-262 [2] was put at a Kd of 31 µM.

B11: histone H3 1-15 K4me3K9me1 peptide (peptide)
peptide: ART[Lys(Me3)]QTAR[Lys(Me)]STGGKA
Regarding B11, in [3], the binding result is given as “binds”. Moreover, the “fold decrease of binding affinity in the presence of DOCpep(1-3)” value in [4] was roughly 17 fold.

B12: histone H3 1-15 K4me3K9me2 peptide (peptide)
peptide: ART[Lys(Me3)]QTAR[Lys(Me2)]STGGKA
For B12, in series [3], the binding result is “binds”. The “fold decrease of binding affinity in the presence of DOCpep(1-3)” value in series [4] was roughly 4.5 fold.
